Tests used:
[1] = target: TRPV6* (rat TRPV6 residues 1–668 with I62Y, L92N and M96Q; L495Q reverted to the native leucine) (rat) (UniProt Q9R186); assay: crystal structure; hanging drop, 20–24% PEG 350 MME, 50 mM NaCl, 50 mM Tris-HCl pH 8.0–8.5, 20 °C; also with 10 mM CaCl2 or 1 mM GdCl3; homotetramer
[2] = target: TRPV6* (rat TRPV6 residues 1–668 with I62Y, L92N and M96Q; L495Q reverted to the native leucine) (rat) (UniProt Q9R186); assay: SEC; FSEC traces of purified protein following tryptophan fluorescence; elution time corresponding to the tetrameric assembly
[3] = target: TRPV6*-del4 (TRPV6* with ten residues, 471–480, deleted in the S4–S5 linker) (rat) (UniProt Q9R186); assay: as above
[4] = target: TRPV6*-del2 (TRPV6* with six residues, 475–480, deleted in the S4–S5 linker) (rat) (UniProt Q9R186); assay: as above
[5] = target: TRPV6_(cryst) (rat TRPV6 residues 1–668 with I62Y, L92N, M96Q and L495Q) (rat) (UniProt Q9R186); assay: crystal structure; hanging drop, 20–24% PEG 350 MME, 50 mM NaCl, 50 mM Tris-HCl pH 8.0–8.5, 20 °C; also with 10 mM CaCl2 or 1 mM GdCl3; homotetramer
[6] = target: TRPV6*-del1 (TRPV6* with four residues, 477–480, deleted in the S4–S5 linker) (rat) (UniProt Q9R186); assay: SEC; FSEC traces of purified protein following tryptophan fluorescence; elution time corresponding to the tetrameric assembly
[7] = target: TRPV6*-del3 (TRPV6* with eight residues, 473–480, deleted in the S4–S5 linker) (rat) (UniProt Q9R186); assay: as above

For “TRPV6* (rat TRPV6 residues 1–668 with I62Y, L92N and M96Q; L495Q reverted to the native leucine) (from UniProt Q9R186 1-668)”, the stoichiometry N [1] was 4 and the stoichiometry N [2] was 4.
In the case of “TRPV6*-del4 (TRPV6* with ten residues, 471–480, deleted in the S4–S5 linker) (from UniProt Q9R186 1-668)”, the stoichiometry N [3] is reported as 4.
For “TRPV6*-del2 (TRPV6* with six residues, 475–480, deleted in the S4–S5 linker) (from UniProt Q9R186 1-668)”, the stoichiometry N [4] was 4.
Work on “TRPV6_(cryst) (rat TRPV6 residues 1–668 with I62Y, L92N, M96Q and L495Q) (from UniProt Q9R186 1-668)” yielded a stoichiometry N [5] of 4.
In the case of “TRPV6*-del1 (TRPV6* with four residues, 477–480, deleted in the S4–S5 linker) (from UniProt Q9R186 1-668)”, the stoichiometry N [6] is reported as 4.
Substance “TRPV6*-del3 (TRPV6* with eight residues, 473–480, deleted in the S4–S5 linker) (from UniProt Q9R186 1-668)” has a stoichiometry N [7] of 4.
